# Test results from IntAct's records for PubMed 24297912.
# B1: Basigin (Homo sapiens), P35613-2 (parent)
# chain: MAAALFVLLGFALLGTHGASGAAGTVFTTVEDLGSKILLTCSLNDSATEVTGHRWLKGGVVLKEDALPGQKTEFKVDSDDQWGEYSCVFLPEPMGTANIQLHGPPRVKAVKSSEHINEGETAMLVCKSESVPPVTDWAWYKITDSEDKALMNGSESRFFVSSSQGRSELHIENLNMEADPGQYRCNGTSSKGSDQAIITLRVRSHLAALWPFLGIVAEVLVLVTIIFIYEKRRKPEDVLDDDDAGSAPLKSSGQHQNDKGKNVRQRNSS
# Variants of: B1
# Details: with rh5_plaf7 RH5, Q8IFM5
# Chain of rh5_plaf7 RH5, Q8IFM5 (Q8IFM5 whole entry): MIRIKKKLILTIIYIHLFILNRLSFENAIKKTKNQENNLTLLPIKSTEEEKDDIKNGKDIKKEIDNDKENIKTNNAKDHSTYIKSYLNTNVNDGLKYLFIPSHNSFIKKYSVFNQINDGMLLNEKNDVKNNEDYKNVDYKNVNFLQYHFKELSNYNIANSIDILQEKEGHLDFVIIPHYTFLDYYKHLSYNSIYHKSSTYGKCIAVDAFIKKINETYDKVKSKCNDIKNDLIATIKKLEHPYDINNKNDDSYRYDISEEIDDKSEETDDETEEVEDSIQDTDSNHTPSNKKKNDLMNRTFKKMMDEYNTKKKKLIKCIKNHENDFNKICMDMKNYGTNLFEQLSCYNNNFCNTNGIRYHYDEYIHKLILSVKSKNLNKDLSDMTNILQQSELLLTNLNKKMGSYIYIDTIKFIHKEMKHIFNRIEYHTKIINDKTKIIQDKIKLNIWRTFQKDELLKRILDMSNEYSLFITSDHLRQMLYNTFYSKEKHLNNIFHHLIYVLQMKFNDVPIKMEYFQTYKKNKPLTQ
row,Variant,effect of a mutation on the interaction
1,MAAALFVLLGFALLGTHGASGAAGTVFTTVEELGSKILLTCSLNDSATEVTGHRWLKGGVVLKEDALPGQKTEFKVDSDDQWGEYSCVFLPEPMGTANIQLHGPPRVKAVKSSEHINEGETAMLVCKSESVPPVTDWAWYKITDSEDKALMNGSESRFFVSSSQGRSELHIENLNMEADPGQYRCNGTSSKGSDQAIITLRVRSHLAALWPFLGIVAEVLVLVTIIFIYEKRRKPEDVLDDDDAGSAPLKSSGQHQNDKGKNVRQRNSS [D32E],with no effect
2,MAAALFVLLGFALLGTHGASGAAGTVLTTVEDLGSKILLTCSLNDSATEVTGHRWLKGGVVLKEDALPGQKTEFKVDSDDQWGEYSCVFLPEPMGTANIQLHGPPRVKAVKSSEHINEGETAMLVCKSESVPPVTDWAWYKITDSEDKALMNGSESRFFVSSSQGRSELHIENLNMEADPGQYRCNGTSSKGSDQAIITLRVRSHLAALWPFLGIVAEVLVLVTIIFIYEKRRKPEDVLDDDDAGSAPLKSSGQHQNDKGKNVRQRNSS [F27L],decreasing interaction strength
3,MAAALFVLLGFALLGTHGASGAAGTVFTTVEDLGSKILLTCSLNDSATEVTGHRWLKGGVVLKEDALPGQKTEFEVDSDDQWGEYSCVFLPEPMGTANIQLHGPPRVKAVKSSEHINEGETAMLVCKSESVPPVTDWAWYKITDSEDKALMNGSESRFFVSSSQGRSELHIENLNMEADPGQYRCNGTSSKGSDQAIITLRVRSHLAALWPFLGIVAEVLVLVTIIFIYEKRRKPEDVLDDDDAGSAPLKSSGQHQNDKGKNVRQRNSS [K75E],with no effect
4,MAAALFVLLGFALLGTHGASGAAGTVFTTVEDLGSKILLTCSLNDSATEVTGHRWLKGGVVLKEDALPGQKTEFKVDSDDQWGEYSCVFLPEPMGTANIKLHGPPRVKAVKSSEHINEGETAMLVCKSESVPPVTDWAWYKITDSEDKALMNGSESRFFVSSSQGRSELHIENLNMEADPGQYRCNGTSSKGSDQAIITLRVRSHLAALWPFLGIVAEVLVLVTIIFIYEKRRKPEDVLDDDDAGSAPLKSSGQHQNDKGKNVRQRNSS [Q100K],decreasing interaction strength
